Consider one substance from patent US20040180389A1.

For the assay, the target named is murine GM-CSF receptor (on FDC-P1 cells) (murine) (UniProt Q00941). Nature of the assay: cell-based or functional assay.
Sequence of UniProt Q00941 (Q00941 30-388, chain 1 of 2): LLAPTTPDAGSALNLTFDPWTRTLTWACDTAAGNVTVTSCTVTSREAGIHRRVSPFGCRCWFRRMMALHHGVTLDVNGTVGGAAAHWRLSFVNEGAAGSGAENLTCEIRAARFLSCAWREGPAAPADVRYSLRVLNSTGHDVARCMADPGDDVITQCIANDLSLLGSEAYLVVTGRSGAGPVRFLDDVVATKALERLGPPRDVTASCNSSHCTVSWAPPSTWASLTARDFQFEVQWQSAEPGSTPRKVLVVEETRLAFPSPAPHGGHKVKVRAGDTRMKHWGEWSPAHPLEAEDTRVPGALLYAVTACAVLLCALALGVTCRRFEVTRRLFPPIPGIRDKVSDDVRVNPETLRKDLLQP
Sequence of UniProt Q00941 (P26955 23-896, chain 2 of 2, further chain): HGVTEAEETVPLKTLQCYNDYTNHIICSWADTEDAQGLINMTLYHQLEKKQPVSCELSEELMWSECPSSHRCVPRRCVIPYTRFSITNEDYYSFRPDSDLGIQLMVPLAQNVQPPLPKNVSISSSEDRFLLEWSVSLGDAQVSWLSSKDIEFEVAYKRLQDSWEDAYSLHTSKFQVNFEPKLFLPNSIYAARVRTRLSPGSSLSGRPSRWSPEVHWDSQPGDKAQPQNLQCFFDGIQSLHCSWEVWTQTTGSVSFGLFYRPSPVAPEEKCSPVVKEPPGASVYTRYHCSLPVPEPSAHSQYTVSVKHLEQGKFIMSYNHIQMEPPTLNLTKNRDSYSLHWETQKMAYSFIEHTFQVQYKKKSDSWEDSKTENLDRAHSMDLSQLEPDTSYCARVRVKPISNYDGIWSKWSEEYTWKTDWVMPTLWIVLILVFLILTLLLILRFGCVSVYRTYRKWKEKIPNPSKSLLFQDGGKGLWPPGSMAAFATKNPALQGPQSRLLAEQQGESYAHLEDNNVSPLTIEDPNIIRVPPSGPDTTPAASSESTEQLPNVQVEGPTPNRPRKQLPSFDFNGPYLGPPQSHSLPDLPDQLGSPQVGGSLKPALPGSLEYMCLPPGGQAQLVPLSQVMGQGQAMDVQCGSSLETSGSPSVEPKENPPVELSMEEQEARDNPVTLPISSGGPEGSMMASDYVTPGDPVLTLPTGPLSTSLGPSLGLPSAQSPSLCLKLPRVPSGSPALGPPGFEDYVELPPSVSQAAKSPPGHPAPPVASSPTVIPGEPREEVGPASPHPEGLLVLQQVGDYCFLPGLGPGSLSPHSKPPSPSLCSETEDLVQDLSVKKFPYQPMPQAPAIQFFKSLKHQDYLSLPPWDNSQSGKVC

Consider “GPI-GM-CSF (murine GM-CSF fused to the S. cerevisiae Gas1 GPI modification signal sequence, expressed in yeast clone SC-GM-GPI) (from UniProt P01587 18-141; P22146 474-528) (other; the values are: proliferation increase vs soluble GM-CSF)”, for which the proliferation of FDC-P1 cells (Biotrak BrdU cell proliferation ELISA), 10 ng GM-CSF equivalent per well stood at 25%.
